Measured values: patent US12099068B2, “Biomarkers for graft-versus-host disease” (Incyte Corporation, priority 2018, dated 2024)

B1: CD79B (protein, UniProt P40259 29-229, looked up)
B-cell antigen receptor …: ARSEDRYRNPKGSACSRIWQSPRFIARKRGFTVKMHCYMNSASGNVSWLWKQEMDENPQQLKLEKGRMEESQNESLATLTIQGIRFEDNGIYFCQQKCNNTSEVYQGCGTELRVMGFSTLAQLKQRNTLKDGIIMIQTLLIILFIIVPIFLLLDKDDSKAGMEEDHTYEGLDIDQTATYEDIVTLRTGEVKWSVGEHPGQE
B2: TNFRSF14 (protein, UniProt Q92956 39-283, looked up)
Tumor necrosis factor …: LPSCKEDEYPVGSECCPKCSPGYRVKEACGELTGTVCEPCPPGTYIAHLNGLSKCLQCQMCDPAMGLRASRNCSRTENAVCGCSPGHFCIVQDGDHCAACRAYATSSPGQRVQKGGTESQDTLCQNCPPGTFSPNGTLEECQHQTKCSWLVTKAGAGTSSSHWVWWFLSGSLVIVIVCSTVGLIICVKRRKPRGDVVKVIVSVQRKRQEAEGEATVIEALQAPPDVTTVAVEETIPSFTGRSPNH
B3: NADK (protein, UniProt O95544 1-446, looked up)
NAD kinase: MEMEQEKMTMNKELSPDAAAYCCSACHGDETWSYNHPIRGRAKSRSLSASPALGSTKEFRRTRSLHGPCPVTTFGPKACVLQNPQTIMHIQDPASQRLTWNKSPKSVLVIKKMRDASLLQPFKELCTHLMEENMIVYVEKKVLEDPAIASDESFGAVKKKFCTFREDYDDISNQIDFIICLGGDGTLLYASSLFQGSVPPVMAFHLGSLGFLTPFSFENFQSQVTQVIEGNAAVVLRSRLKVRVVKELRGKKTAVHNGLGENGSQAAGLDMDVGKQAMQYQVLNEVVIDRGPSSYLSNVDVYLDGHLITTVQGDGVIVSTPTGSTAYAAAAGASMIHPNVPAIMITPICPHSLSFRPIVVPAGVELKIMLSPEARNTAWVSFDGRKRQEIRHGDSISITTSCYPLPSICVRDPVSDWFESLAQCLHWNVRKKQAHFEEEEEEEEEG
B4: FES (protein, UniProt P07332 1-822, looked up)
Tyrosine-protein kinase …: MGFSSELCSPQGHGVLQQMQEAELRLLEGMRKWMAQRVKSDREYAGLLHHMSLQDSGGQSRAISPDSPISQSWAEITSQTEGLSRLLRQHAEDLNSGPLSKLSLLIRERQQLRKTYSEQWQQLQQELTKTHSQDIEKLKSQYRALARDSAQAKRKYQEASKDKDRDKAKDKYVRSLWKLFAHHNRYVLGVRAAQLHHQHHHQLLLPGLLRSLQDLHEEMACILKEILQEYLEISSLVQDEVVAIHREMAAAAARIQPEAEYQGFLRQYGSAPDVPPCVTFDESLLEEGEPLEPGELQLNELTVESVQHTLTSVTDELAVATEMVFRRQEMVTQLQQELRNEEENTHPRERVQLLGKRQVLQEALQGLQVALCSQAKLQAQQELLQTKLEHLGPGEPPPVLLLQDDRHSTSSSEQEREGGRTPTLEILKSHISGIFRPKFSLPPPLQLIPEVQKPLHEQLWYHGAIPRAEVAELLVHSGDFLVRESQGKQEYVLSVLWDGLPRHFIIQSLDNLYRLEGEGFPSIPLLIDHLLSTQQPLTKKSGVVLHRAVPKDKWVLNHEDLVLGEQIGRGNFGEVFSGRLRADNTLVAVKSCRETLPPDLKAKFLQEARILKQYSHPNIVRLIGVCTQKQPIYIVMELVQGGDFLTFLRTEGARLRVKTLLQMVGDAAAGMEYLESKCCIHRDLAARNCLVTEKNVLKISDFGMSREEADGVYAASGGLRQVPVKWTAPEALNYGRYSSESDVWSFGILLWETFSLGASPYPNLSNQQTREFVEKGGRLPCPELCPDAVFRLMEQCWAYEPGQRPSFSTIYQELQSIRKRHR
B5: Flt3L (protein, UniProt P49771 27-235, looked up)
Fms-related tyrosine kinase 3 …: TQDCSFQHSPISSDFAVKIRELSDYLLQDYPVTVASNLQDEELCGGLWRLVLAQRWMERLKTVAGSKMQGLLERVNTEIHFVTKCAFQPPPSCLRFVQTNISRLLQETSEQLVALKPWITRQNFSRCLELQCQPDSSTLPPPWSPRPLEATAPTAPQPPLLLLLLLPVGLLLLAAAWCLHWQRTRRRTPRPGEQVPPVPSPQDLLLVEH
B6: AMIGO2 (protein, UniProt Q86SJ2 40-522, looked up)
Amphoterin-induced protein 2: VCPTACICATDIVSCTNKNLSKVPGNLFRLIKRLDLSYNRIGLLDSEWIPVSFAKLNTLILRHNNITSISTGSFSTTPNLKCLDLSSNKLKTVKNAVFQELKVLEVLLLYNNHISYLDPSAFGGLSQLQKLYLSGNFLTQFPMDLYVGRFKLAELMFLDVSYNRIPSMPMHHINLVPGKQLRGIYLHGNPFVCDCSLYSLLVFWYRRHFSSVMDFKNDYTCRLWSDSRHSRQVLLLQDSFMNCSDSIINGSFRALGFIHEAQVGERLMVHCDSKTGNANTDFIWVGPDNRLLEPDKEMENFYVFHNGSLVIESPRFEDAGVYSCIAMNKQRLLNETVDVTINVSNFTVSRSHAHEAFNTAFTTLAACVASIVLVLLYLYLTPCPCKCKTKRQKNMLHQSNAHSSILSPGPASDASADERKAGAGKRVVFLEPLKDTAAGQNGKVRLFPSEAVIAEGILKSTRGKSDSDSVNSVFSDTPFVAST
B7: BANK1 (protein, UniProt Q8NDB2 1-785, looked up)
B-cell scaffold protein with …: MLPAAPGKGLGSPDPAPCGPAPPGNTKDIIMIYEEDAEEWALYLTEVFLHVVKREAILLYRLENFSFRHLELLNLTSYKCKLLILSNSLLRDLTPKKCQFLEKILHSPKSVVTLLCGVKSSDQLYELLNISQSRWEISTEQEPEDYISVIQSIIFKDSEDYFEVNIPTDLRAKHSGEISERKEIEELSEASRNTIPLAVVLPTEIPCENPGEIFIILRDEVIGDTVEVEFTSSNKRIRTRPALWNKKVWCMKALEFPAGSVHVNVYCDGIVKATTKIKYYPTAKAKECLFRMADSGESLCQNSIEELDGVLTSIFKHEIPYYEFQSLQTEICSQNKYTHFKELPTLLHCAAKFGLKNLAIHLLQCSGATWASKMKNMEGSDPAHIAERHGHKELKKIFEDFSIQEIDINNEQENDYEEDIASFSTYIPSTQNPAFHHESRKTYGQSADGAEANEMEGEGKQNGSGMETKHSPLEVGSESSEDQYDDLYVFIPGADPENNSQEPLMSSRPPLPPPRPVANAFQLERPHFTLPGTMVEGQMERSQNWGHPGVRQETGDEPKGEKEKKEEEKEQEEEEDPYTFAEIDDSEYDMILANLSIKKKTGSRSFIINRPPAPTPRPTSIPPKEETTPYIAQVFQQKTARRQSDDDKFCGLPKKQDRARIESPAFSTLRGCLTDGQEELILLQEKVKNGKMSMDEALEKFKHWQMGKSGLEMIQQEKLRQLRDCIIGKRPEEENVYNKLTIVHHPGGKETAHNENKFYNVHFSNKLPARPQVEKEFGFCCKKDH
B8: ZBTB17 (protein, UniProt Q13105 1-803, looked up)
Zinc finger and BTB …: MDFPQHSQHVLEQLNQQRQLGLLCDCTFVVDGVHFKAHKAVLAACSEYFKMLFVDQKDVVHLDISNAAGLGQVLEFMYTAKLSLSPENVDDVLAVATFLQMQDIITACHALKSLAEPATSPGGNAEALATEGGDKRAKEEKVATSTLSRLEQAGRSTPIGPSRDLKEERGGQAQSAASGAEQTEKADAPREPPPVELKPDPTSGMAAAEAEAALSESSEQEMEVEPARKGEEEQKEQEEQEEEGAGPAEVKEEGSQLENGEAPEENENEESAGTDSGQELGSEARGLRSGTYGDRTESKAYGSVIHKCEDCGKEFTHTGNFKRHIRIHTGEKPFSCRECSKAFSDPAACKAHEKTHSPLKPYGCEECGKSYRLISLLNLHKKRHSGEARYRCEDCGKLFTTSGNLKRHQLVHSGEKPYQCDYCGRSFSDPTSKMRHLETHDTDKEHKCPHCDKKFNQVGNLKAHLKIHIADGPLKCRECGKQFTTSGNLKRHLRIHSGEKPYVCIHCQRQFADPGALQRHVRIHTGEKPCQCVMCGKAFTQASSLIAHVRQHTGEKPYVCERCGKRFVQSSQLANHIRHHDNIRPHKCSVCSKAFVNVGDLSKHIIIHTGEKPYLCDKCGRGFNRVDNLRSHVKTVHQGKAGIKILEPEEGSEVSVVTVDDMVTLATEALAATAVTQLTVVPVGAAVTADETEVLKAEISKAVKQVQEEDPNTHILYACDSCGDKFLDANSLAQHVRIHTAQALVMFQTDADFYQQYGPGGTWPAGQVLQAGELVFRPRDGAEGQPALAETSPTAPECPPPAE

system: plasma proteins; experiment: Plasma proteins modulated between baseline and day 28 in responders (CR, VGPR, PR; n = 19), Example 6 (Table 13); type: in vivo, human; details: plasma protein (OLINK NPX); responders (CR, VGPR, PR; n = 19); itacitinib 200 mg or 300 mg QD with corticosteroids; day 28 vs baseline
Method in brief: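 Longitudinal comparison, day 28 versus baseline, with steroid-naive (N=10) and steroid-refractory (N=18) patients combined. Proteins measured by OLINK proximity extension, log2 normalized protein expression. Differences tested by t tests, ANOVA, Pearson correlation, P<0.05 significant.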

Point of comparison: B3, “Fold Change, Decreased Expression from Baseline to Day 28” value −1.3493. Against it:
- B1 — higher, −1.2372
- B2 — higher, −1.2658
- B4 — lower, −1.4934
- B6 — higher, −1.1962
- B7 — lower, −2.0084
- B8 — higher, −1.2333

For B5, the “Fold Change, Increased Expression from Baseline to Day 28” value was 2.3423.
